{
  "source": "the RNAGym collection of RNA variant scans (doi:10.7554/elife.80360)",
  "parents": {"B1": {"name": "CPEB3 Ribozyme (parent)", "chain": "GGGGGCCACAGCAGAAGCGUUCACGUCGCGGCCCCUGUCAGAUUCUGGUGAAUCUGCGAAUUCUGCUGU"}},
  "data": [
    {"variants_of": "B1", "experiment": "self-cleavage, relative activity (ratio to wild type); higher = more cleavage; co-transcriptional", "values": [
      {"variant": "G5A A23G", "self-cleavage": 0.806},
      {"variant": "G5C A16C", "self-cleavage": 0.0946},
      {"variant": "G5C A16U", "self-cleavage": 0.169},
      {"variant": "G5C A16G", "self-cleavage": 0.205},
      {"variant": "C6G C34A", "self-cleavage": 0.0671},
      {"variant": "G4U C57A", "self-cleavage": 0.17},
      {"variant": "G5A U67A", "self-cleavage": 0.953},
      {"variant": "G5C U55G", "self-cleavage": 0.115},
      {"variant": "G5C U55C", "self-cleavage": 0.175},
      {"variant": "G5C A42G", "self-cleavage": 0.282},
      {"variant": "G4U C63U", "self-cleavage": 0.739},
      {"variant": "G4U C63A", "self-cleavage": 0.306},
      {"variant": "C6A U61A", "self-cleavage": 0.217},
      {"variant": "G5U G19A", "self-cleavage": 0.06},
      {"variant": "G5U C45G", "self-cleavage": 0.149},
      {"variant": "G5U U67A", "self-cleavage": 0.743},
      {"variant": "G5U U67C", "self-cleavage": 0.628},
      {"variant": "C6A C34A", "self-cleavage": 0.153},
      {"variant": "C6A C34G", "self-cleavage": 0.144},
      {"variant": "G4U G41U", "self-cleavage": 0.251},
      {"variant": "G4U G41A", "self-cleavage": 0.265},
      {"variant": "G5U C39A", "self-cleavage": 0.0897},
      {"variant": "G5U C39G", "self-cleavage": 0.0932},
      {"variant": "G5U G48A", "self-cleavage": 0.39},
      {"variant": "G5A G37A", "self-cleavage": 0.143},
      {"variant": "C6G C29A", "self-cleavage": 0.0897},
      {"variant": "C6A C33A", "self-cleavage": 0.127},
      {"variant": "C6A C39G", "self-cleavage": 0.372},
      {"variant": "G5A U46G", "self-cleavage": 0.925},
      {"variant": "G5A U46A", "self-cleavage": 0.907},
      {"variant": "G4U U61G", "self-cleavage": 0.439},
      {"variant": "G4U U61A", "self-cleavage": 0.154},
      {"variant": "G5C C32A", "self-cleavage": 0.805},
      {"variant": "G5C C32U", "self-cleavage": 0.703},
      {"variant": "G5U A59G", "self-cleavage": 0.139},
      {"variant": "G5U A59C", "self-cleavage": 0.181},
      {"variant": "G5A C34U", "self-cleavage": 0.599},
      {"variant": "G5A C34A", "self-cleavage": 0.203},
      {"variant": "G4U U44A", "self-cleavage": 0.532},
      {"variant": "G5U G30A", "self-cleavage": 0.0886},
      {"variant": "G5C G14A", "self-cleavage": 0.0874},
      {"variant": "G5C G14C", "self-cleavage": 0.146},
      {"variant": "G5C C24A", "self-cleavage": 0.112},
      {"variant": "G5C", "self-cleavage": 0.24},
      {"variant": "G5U", "self-cleavage": 0.316},
      {"variant": "G5A", "self-cleavage": 0.933},
      {"variant": "G4U U69C", "self-cleavage": 1.02},
      {"variant": "G4U U69G", "self-cleavage": 0.941},
      {"variant": "C6G A10C", "self-cleavage": 0.284},
      {"variant": "G5A A15G", "self-cleavage": 0.846},
      {"variant": "G4U C66G", "self-cleavage": 0.431},
      {"variant": "G5A C29G", "self-cleavage": 0.175},
      {"variant": "G4U G68A", "self-cleavage": 0.983},
      {"variant": "G4U G68C", "self-cleavage": 0.97},
      {"variant": "G5C U43A", "self-cleavage": 0.183},
      {"variant": "C6G A51G", "self-cleavage": 0.356},
      {"variant": "C6G A51C", "self-cleavage": 0.154},
      {"variant": "C6A G41U", "self-cleavage": 0.225},
      {"variant": "C6A G41C", "self-cleavage": 0.192},
      {"variant": "G4U G48U", "self-cleavage": 0.813},
      {"variant": "G4U G48C", "self-cleavage": 0.752},
      {"variant": "C6A G17A", "self-cleavage": 0.131},
      {"variant": "G5U A15C", "self-cleavage": 0.0532},
      {"variant": "G5U A15U", "self-cleavage": 0.092},
      {"variant": "G5U A15G", "self-cleavage": 0.19},
      {"variant": "G5A G65U", "self-cleavage": 0.513},
      {"variant": "G5C G25A", "self-cleavage": 0.0822},
      {"variant": "G5C C54A", "self-cleavage": 0.123},
      {"variant": "G5A U36G", "self-cleavage": 0.521},
      {"variant": "G5A U36C", "self-cleavage": 0.831},
      {"variant": "G5C G48C", "self-cleavage": 0.245},
      {"variant": "G5C G48U", "self-cleavage": 0.194},
      {"variant": "C6A U55A", "self-cleavage": 0.396},
      {"variant": "C6A U55G", "self-cleavage": 0.2},
      {"variant": "C6G C22G", "self-cleavage": 0.0649},
      {"variant": "C6G C22U", "self-cleavage": 0.106},
      {"variant": "C6G C22A", "self-cleavage": 0.0965},
      {"variant": "G5U G11C", "self-cleavage": 0.0768},
      {"variant": "G5U G11A", "self-cleavage": 0.185},
      {"variant": "G5U U38G", "self-cleavage": 0.0473},
      {"variant": "G5U U38A", "self-cleavage": 0.235},
      {"variant": "G5C C7U", "self-cleavage": 0.156},
      {"variant": "G5C G28A", "self-cleavage": 0.134},
      {"variant": "G5U U26C", "self-cleavage": 0.155},
      {"variant": "G5U U36C", "self-cleavage": 0.21},
      {"variant": "G4U U21G", "self-cleavage": 0.054},
      {"variant": "C6A C9U", "self-cleavage": 0.94},
      {"variant": "G5U G65C", "self-cleavage": 0.205},
      {"variant": "C6A U64C", "self-cleavage": 0.304},
      {"variant": "G5C U46G", "self-cleavage": 0.235},
      {"variant": "G5A C66U", "self-cleavage": 0.88},
      {"variant": "G5A U49C", "self-cleavage": 0.969},
      {"variant": "G5A U49G", "self-cleavage": 0.781},
      {"variant": "G5C U38C", "self-cleavage": 0.12},
      {"variant": "G5C U38A", "self-cleavage": 0.145},
      {"variant": "G5U U69A", "self-cleavage": 0.503},
      {"variant": "G5U U69C", "self-cleavage": 0.749},
      {"variant": "C6A G56A", "self-cleavage": 0.423},
      {"variant": "C6A G56U", "self-cleavage": 0.44},
      {"variant": "C6G A60C", "self-cleavage": 0.0823},
      {"variant": "G4U G17C", "self-cleavage": 0.112},
      {"variant": "G4U G17U", "self-cleavage": 0.072},
      {"variant": "G4U G31A", "self-cleavage": 0.0947},
      {"variant": "C6G A23U", "self-cleavage": 0.526},
      {"variant": "C6G A23G", "self-cleavage": 0.164},
      {"variant": "G5A U55G", "self-cleavage": 0.433},
      {"variant": "G5C G17U", "self-cleavage": 0.118},
      {"variant": "G5C G19C", "self-cleavage": 0.0995},
      {"variant": "G5U C12A", "self-cleavage": 0.112},
      {"variant": "G5U C12G", "self-cleavage": 0.1},
      {"variant": "G5C C12G", "self-cleavage": 0.141},
      {"variant": "G5C C12U", "self-cleavage": 0.256},
      {"variant": "G5A C9G", "self-cleavage": 0.982},
      {"variant": "G5A C9U", "self-cleavage": 1.02},
      {"variant": "G5A C39U", "self-cleavage": 0.653},
      {"variant": "G5C A60G", "self-cleavage": 0.215},
      {"variant": "G5C A60C", "self-cleavage": 0.171},
      {"variant": "G5C A60U", "self-cleavage": 0.164},
      {"variant": "C6A U49A", "self-cleavage": 0.641},
      {"variant": "G5A G47U", "self-cleavage": 0.932},
      {"variant": "C6A C7U", "self-cleavage": 0.115},
      {"variant": "C6A C7G", "self-cleavage": 0.0736},
      {"variant": "G5C C66G", "self-cleavage": 0.186},
      {"variant": "G5C C66A", "self-cleavage": 0.202},
      {"variant": "G5A G30A", "self-cleavage": 0.156},
      {"variant": "G5A G30C", "self-cleavage": 0.156},
      {"variant": "C6A U38A", "self-cleavage": 0.3},
      {"variant": "C6A U36A", "self-cleavage": 0.128},
      {"variant": "C6A U36G", "self-cleavage": 0.138},
      {"variant": "C6A C24U", "self-cleavage": 0.195},
      {"variant": "G4U G28U", "self-cleavage": 0.0847},
      {"variant": "G4U G28A", "self-cleavage": 0.0947},
      {"variant": "G4U G56A", "self-cleavage": 0.466},
      {"variant": "C6A A59U", "self-cleavage": 0.202},
      {"variant": "C6A A59C", "self-cleavage": 0.221},
      {"variant": "C6A G19U", "self-cleavage": 0.131},
      {"variant": "C6A C22G", "self-cleavage": 0.155},
      {"variant": "G5C G11C", "self-cleavage": 0.147},
      {"variant": "G5C G11A", "self-cleavage": 0.164},
      {"variant": "G5U C57G", "self-cleavage": 0.115},
      {"variant": "G5U C57U", "self-cleavage": 0.0743},
      {"variant": "G4U U67G", "self-cleavage": 0.921},
      {"variant": "C6G C54A", "self-cleavage": 0.162},
      {"variant": "G4U U62A", "self-cleavage": 0.315},
      {"variant": "G5U C6A", "self-cleavage": 0.0825},
      {"variant": "G5U C6G", "self-cleavage": 0.115},
      {"variant": "G5C C29G", "self-cleavage": 0.113},
      {"variant": "C6G C12A", "self-cleavage": 0.102},
      {"variant": "C6G C12G", "self-cleavage": 0.253},
      {"variant": "C6G C12U", "self-cleavage": 0.271},
      {"variant": "C6G A59U", "self-cleavage": 0.152},
      {"variant": "G5U G56C", "self-cleavage": 0.163},
      {"variant": "G5U G56U", "self-cleavage": 0.104},
      {"variant": "G5U G56A", "self-cleavage": 0.137},
      {"variant": "C6A C29G", "self-cleavage": 0.179},
      {"variant": "G5A U20A", "self-cleavage": 0.0737},
      {"variant": "C6A A13C", "self-cleavage": 0.262},
      {"variant": "C6A A13U", "self-cleavage": 0.346},
      {"variant": "G5C G31C", "self-cleavage": 0.0712},
      {"variant": "G5C G31A", "self-cleavage": 0.2},
      {"variant": "G4U G58U", "self-cleavage": 0.798},
      {"variant": "C6G C45G", "self-cleavage": 0.376},
      {"variant": "G5A G11A", "self-cleavage": 0.785},
      {"variant": "G5U U53A", "self-cleavage": 0.116},
      {"variant": "G5U U53C", "self-cleavage": 0.0878},
      {"variant": "G5C U20A", "self-cleavage": 0.0824},
      {"variant": "G5C U20C", "self-cleavage": 0.0972}
    ]}
  ]
}
